Conditions: phosphorylation at S2808

Substance | structure_or_conformation | other
RyR2 (ryanodine receptor type 2): S2808D phosphomimetic (expressing cells also treated with H2O2; irreversible oxidative modifications retained) | changes, RMSD normalized projection = 0.11 (subprimed state) | 
RyR2 (ryanodine receptor type 2): S2808D phosphomimetic |  | increases

Reference: publication PMC11402997
